Test results as given in PMC5877399 (Biomacromolecules, 2014).
One block for each binder: values may come before it. *: point of attachment. Ru(bipy)3 = tris(bipyridine)ruthenium complex attached to the Lys ε-amine via an NHS ester; Palmitoyl = CCCCCCCCCCCCCCCC(=O)*

B1: PA2-Gd(DO3A), palmitoyl-MAAAEEEEK(DO3A:Gd)-NH2 (peptide)
peptide: MAAAEEEEK
modifications: not fully specified; palmitoyl on the N-terminus; K(DO3A:Gd); C-terminal amide (NH2)

How the values were obtained:
[1] = target: the molecule itself; assay: circular dichroism spectroscopy
[2] = target: T1, PA1-Gd(DO3A), palmitoyl-IAAAEEEEK(DO3A:Gd)-NH2 (not fully specified (residue 9); printed as palmitoyl-IAAAEEEEK(DO3A:Gd)-NH2; also: Gd complex of DO3A); assay: fluorescence polarisation
T1 peptide: Palmitoyl-IAAAEEEEK-NH2

[3] = target: B1; assay: fluorescence polarisation

Binder: B1
- binding result [1]: binds

- binding result [2]: binds
Binder: Palmitoyl-IAAAEEEEK(Ru(bipy)3)-NH2 (also: Ru(bipy)3 via NHS ester linker, Ru complex) [PA1-Ru(bipy)3, palmitoyl-IAAAEEEEK[Ru(bipy)3]-NH2]

- binding result [3]: binds
Binder: Palmitoyl-MAAAEEEEK(Ru(bipy)3)-NH2 (also: Ru(bipy)3 via NHS ester linker, Ru complex) [PA2-Ru(bipy)3, palmitoyl-MAAAEEEEK[Ru(bipy)3]-NH2]
